Source: the nanobody polyreactivity screen of Harvey et al. (2022)

Experiment: yeast display, Sf9 membrane polyspecificity reagent, FACS + sequencing; frameworks hold sequencing errors
In short: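 Galactose induction of a Saccharomyces cerevisiae BJ5465 synthetic nanobody display library ran 36–48 hours. The cells were then stained for 1 hour at 4 °C with 10% biotinylated, detergent-solubilized Sf9 membrane reagent, pulled down on streptavidin microbeads and FACS-sorted into low and high (top ~1%) gates on expression and reagent-binding fluorescence. Labels for polyreactivity follow the gate of origin.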

Row | Sequence | polyreactivity (PSR sort gate)
1 | QVQLVESGGGLVQAGGSLRLSCAASGFTIRRNAMGWYRQAPGKERELVAAISRSGGSTYADSVKGRFTISRDNAKNTVYLQMNSLKPEDTAVYYFASDHSYYRYTYTALIAEFYYWGQGTQVTVSS | low polyreactivity
2 | QVQLVESVGGLVQAGGSLRLSCAASGSTFTDYDMGWYRQAPGKERELVADISSGGSTYYADSVKGRFTISRDNAKNTVYLQMNSLKPEDTAVYYCNTDLRLVYRTKGFISWGYDYWGQGTQVTVSS | low polyreactivity
3 | QVQLVESGGGLVQAGGSLRLSCAASGSTFDTNAMGWSRPAPGKEREWVAAITWRGGRTSYADSVKGRFTISRDNAKNTVYLQMNSLKPEDTAVYYCAAGYKFGPPAAGTFSDFDYWGQGTQVTVTS | low polyreactivity
4 | QVQLVESGGGLVQAGGSLRLSCAASGLTFAWNDMGWYRQAPGKERELVAAISIIGTTYYADSVKGRFTISRDNAKNTVYLQMNSLKREDTAVYYCAKTGFLGLRQYGYWGQGTQVTVSS | high polyreactivity
5 | QVQLVESGGGLVQAGGSLRLSCAASGLISESYAMGWYRQAPGKETELVAAISSGGSTYYADSVKGRFTISRDNAKNTVYLQMNSLNPEDTAVYFCNATGYKYNYGHAYYYAVDYWGQGTQVTVSS | low polyreactivity
6 | QVQLVESGGGLVLAAGSLRLSCAASGFIFGSYAMGWYRQAPGKERELFAAISRSGGRTYYADSVKGRFTISRDNAKNTVYLQMNSLKPEDTAVYYCAAVHLLVYPTYDYWGQGTQVTVSS | high polyreactivity
7 | QVQLVESGGGLVQAGGSLRLSCAASGRIFSLYAMGWYRQAPGKERELVAAISRGGSTYYADSVKGRFTISRDNAKNTVYLQMNSLKPEDTAVYYCAAAPDYRAEYDYWGQGTQVTVSS | low polyreactivity
8 | QVQLVESRGGFVQARCSLRLSCDASGRIFYYYGMGWYRQAPGKERELVAAITRNTGRTYYADSVKGRFTISRDNAKNTVYLQMNSLKPEDSSVYYFARDRRTWSPYTRAYRRNDYWVQGTQVTVSS | high polyreactivity
9 | QVQHVESGGGLVQAGGSLRLSCGASGITLYGYAMGWYRQAPGKEREFVAAISRSGDRTYYADSVKGRFTISRDNAKNTVYLQMNSLKPEDTAVYYCNAWRYDYWGQGTQVTVSS | high polyreactivity
10 | QVQLVESGGGLVQAGGSLRLSCAASGSTFYVNAMGWYRQAPGKERELVATISSGGSTNYADSVKGRFTISRDNAKNTVYLQMNSLKPEDTAVYYCAKEYGSIIPYDYWGQGTQVSVSS | low polyreactivity
11 | QVQLVESGGGLVQAGGSLRLSCAASGSTSPINAMRWYRQAPGKERELVAVISSSGGRTYYADSVKGRFTISRDNAKNTVYLQMNSLKPEDTAVYYFDKRFSRRQPDYDYWGQGTQVTVSS | high polyreactivity
12 | QVQLVESGGGLVQAGCSLRLICAASGFTFGRNAMGWYRQAPGKEREFVADISGSVGSTYYADSVKGRFTISRDNAKNTVYLQMNSLKPEDTAVYYCAADTLYTRWEFDYWGQGTLVTVSS | high polyreactivity
13 | QVQLVESGGGLVQAGGSLRLSCAASGSTFSDNAMGWSRQAPGKERELVATIDYDGSTYYADSVKGRFTISRDNAKNTVYLQMNSLRTEDTAVYYCAADVYQVPGPYWSRTYEYDYWGQGTQVTVSS | low polyreactivity
14 | QVQLVESGAGLFQAGGSLRLSCAASGRTFVKNAMAWYRQAPGKERELVAAISTSGGRTYYADSVKGRFTISRDNAKKTVYLQMNSLKPEDTAVYYCGAVLYATRPVYGFDSCGQGTQVTVSS | high polyreactivity
15 | QVQLVESGGGLVQAGGSLRLSCAASGIIFKSNAMGWSRQAPGKERELVAAIRSSGSTNYADSVKGRFTISRDNAKNTVYLQLNSLKPEDTAVYYCAVSSWSVWGHYYWGQGTQVTVSS | high polyreactivity
16 | QVQLVESGGGLVQAGGSLRLSCAASGRIFYYNVMGWYRQAPGKEREFVAAISTRTGSTYYADSVKGRFTISRDNAKNTVYLQMNSLKPEDTAVYYCAAPYRAYSYDYWGQGTQVTVSS | high polyreactivity
17 | QVQLVESGGGLVQAGGSLRLSCAASGFTISRYTMGWYRQAPGKERELVASITRRAGSTYYADSVKGRYTISRDNAQTTVYLQMYSLKPEDTAVYYCAAYGWTFSKVDLEMDYWGQGTQVTVSS | high polyreactivity
18 | QVQLVESGGGLVQAGGSLRLSCAASGSIFKKYAMGWYRQAPGKERELVAAISSVGGTYYADSVKGRFTISRDNAKNTVYLQMNSLKPEDTAVYYWYTDGYVGSIRSGLYIYDYWGQGTQVTVSS | low polyreactivity
19 | QVQLVESGGGLGQAGGSLRLSCAASGFTFWYYGRGWYRQAPGKERELVAAITSSGGRTSYADSVKGRFTISRDNAKNTVYLQMNSLKPEETADYYCAALYSYYSLYDDYDYWGQGTQVTVSS | high polyreactivity
20 | QVQLVESGGGLVQAGGSLRLSCAASGITFRWYAMGWYRQAPGKERELVALIDGRGASTYADSVKGRFTISRDNAKNTVYLQMNSLKPEDTAVYYCAVAQVRVTYLWVRKFYYWGQGTQVTVSS | high polyreactivity
21 | QVKLVESGGGLVQAGGSLRLSCADSGSIFGGNTMVWYRQAPGKEREFVAAITWGGNTYYADSVKGRFTISRDNAKNTVYLQTNSLKPEDTAVYYCAAGGRPQYWGRYYYWGQGTQVTVSS | high polyreactivity
22 | QVQLVESGGGLVQAGGSLRLSCAASGRTFRTYTMGWYRQAPGKERELVAAIRSIDGITYYADSVKGRFTISRDNAKTTVDLPKNSLKPEDTAVYYCAARYTASKPMGYWGQGTQVTVSS | high polyreactivity

Row | Sequence | polyreactivity (PSR sort gate)
23 | QVQLVESGGGLVQAGGSLRLSCAASGSIFADYAMGWYRQAPGKERELVAVITSSGGSTNYADSVKGRFTISRDNAKNTVYLQMNSLKPEDTAVYYCNRRPYPSYDYWGQGTQVTVSS | low polyreactivity
24 | QDQLVESGGCLVQAGGSLRLSCAASGRIIIGYVMGWYRQAPVKERELVATISYSGGSTYADSVKGRFTISRDNAKNTVYLLMNSLKPEDTAVYYCNALFAGHKYYTVTSKYDYWGQGTQVTLSS | high polyreactivity
25 | QVQLVESGGGLVQAGGSLRLSCAASGSIFFSNAMGWYRQAPGKERELVAAITSTGGSTYYADSVKGRFTISRDNAKNTVDLQMNSLKPEDTAVYYCAAASRRGYYYWGQGTQVTVSS | high polyreactivity
26 | QVQLVESGGGLVQAGGSLRLSCAASGSTFALYAMGWYRQAPGKERELVAAITRGDRTYYADSVKGRFTISRDNAKNTVYLQMNSLKAEDSAVYYCAAGYFGLWVRYDYWGQGSQVTVSS | low polyreactivity
27 | QVQLVESGGGLVQAGGSLRLTCAASGSIYGVYAMGWSIQGPGKEREWVAVISWNGGRTYYADSVKGRFTISRDNAKNTVYLQMNSLKPEDTAVYYCAADTSYRYRDYHVDYWGQGTQVTVSS | high polyreactivity
28 | QVKLVESGGGLVQAGGSLRLSCAASGRTFYSYAMGWYRQAPGKERELVAAISAGGSTYYADSVKGRFTISRDNAKNTVYLQMTSLKPEDTAVYYCAAPVRYTYWRYPYDYWGQGTQVTVSS | high polyreactivity
29 | QVQLVESGGGLVQAGGSLRLSCAASGRTFYVNTMGWYRQAPGKEREFVAAISYSGGRTYYADSVKGRFTISRDNAKNTVYLQMNSLKPEDTAVYYCATRINSWSAYTKYDYWGQGTQVTVSS | high polyreactivity
30 | QVHHVESGGGLVQAGGSLRLSCAAYGFIFNVYAMGWYRQAPGKERELVAAISTSGSNTYYADSVKGRFTISRDNAKNTVYLQMNSLKPEDTADYYCAAAYRYPSGRSFGYWGQGTQVTVSS | high polyreactivity
31 | QVQLVESGGGLVQAGGSLRLSCAASGRIFDHNAMGWYRQAPGKERELVAAITWSGGRTYYADSVKGRFTISRDNAKNTVYLQMNSLKPEDTAVYYCNAPVSRRGGNYWGLGTQVTVSS | high polyreactivity
32 | QVQLVESGGGLVQAGGSLRLSCAASGSIFYAYTMGWYRQAPGKERELVARITQSDDGTYYADSVKGRFTISRDNAKNTVYLQMNSLKPEDTAVYYCAVVFWQLAHRYDYWGQGTQVTVSS | low polyreactivity
33 | QDQHVESAGGLVQAGGSRRLSCAASESMFSTYPMGCYSQAPGTESELVATIRRGGSTYYADSVKGRFTISRDNAKNTVYLQMNSLKPEDSAVYYCAATVSSYPYYRYYSWGQGTQVTVSS | high polyreactivity
34 | QVQLVESGGGLVQAGGSLRLSCAASGRTFLVNAMGWYRQAPGKERELVAAISSVGSTNYADSVKGRFTISRDNAKNTVYLQMNSLKPEVTSVYYCAKDAEYDCGQGTQVTVSS | low polyreactivity
35 | QVQLVESGGGLVQPGGSLRLSCAASGRTFRWYAMGWYRQEPGKERELVAAISAGGGSTYYADSVKGRFTISRDNAKYTVSLQLTRVKPEDTAVYYCNRVAWNYGFGSSAYGYWGQGTQVTVSS | high polyreactivity
36 | QVQLVESGGGLVQAGGILRLSCAASGNIFPINAMGWYRQAPGKEREFVAAITRSGSRTYYADSVKGRFTISRDNAKNTVYLQMNSLKKEDTAVYYCADRGNSTPVYSRYGYWGQGTQVTVSS | low polyreactivity
37 | QVQLVESGGGLVQAGGSLRLSCAASGRTFRRYAMGWYRQAPGKERELVAAISFGGRTYYADSVKGRFTISRDNAKNTVYLQMNSLKPEDTAVYYCAVRSYDQLIVPRDYWGQGTQVTVSS | high polyreactivity
38 | QVQLVESGGGLVQAGGSLRLSCAASGFTFYNYAKGWYIQAPGNERELVAAITSRGGSTYYADSVKGRFTISRDNAKNTVYLQMNSLKPEDTAVYYCAAGYVHYGWFELDYWGQGTQVTVSS | low polyreactivity
39 | QVQLVESGGGLVQAGGSLRLSCAASGRIFVGYAMGWYRQAPGKVREFFAAITWSGGSTSYADSVKGRFTISRDNAKNTVYLQKNSLKPEDTAVYYCNARRYYYFGLSLYEYDYWGQGTQVTVSS | low polyreactivity
40 | QVQLVESGGGLVQAGGSLRLSFAASGRTFSRYAMVWYRQAPGKERELVATISFGGSTYYADSVKGRFTISRDNAKNTVYLQMNSLKPEDTALYYCTARYYLNYRGRKYESWGQGTQVTVSS | high polyreactivity
41 | QDQLVESGGGLVQAGGSLRLSCAASGFMFSYYAMGWYRQAPGKARELVAAMTSNGGITYYADSVKGRITISRDKAKNTVYLQMNSLKPEDTAVYYCNAYYTSTSYDYWGQGTQVTVSS | high polyreactivity
42 | QVQLVESGGGLVQAGGSLRLSCAASVSTFDYYTMGRYRQAPGKERELVAAISSAGSTNYADSVKGRFTISRDNAKNTVYLQMNSLKPEDTAVYYCAAQVHPIRYDYWGQGTQVTVSS | low polyreactivity
43 | QVQLVESGGGLVQAGGSLRLSCAASGSTFYLYTMGWYRQAPGKERELVAAINRSGGRTYYADSVKGRFTISRDNAKNTVYLQMNSLKPEDTAVYYCATDSVTRGRSRGFDYWGQGTQVTVSS | high polyreactivity
